Experimental data: paper PMC7160020 (Biochemistry, 2020)
Read-outs that look alike come from different tables or passages of the source. Values belong to the molecule of their own block, whether it stands above or below them.

Experiments:
[1] = biological target: RNR β2 (Escherichia coli) (UniProt P69924); settings: cited from earlier work
[2] = biological target: RNR β2 (Escherichia coli) (UniProt P69924); settings: cited from earlier work; remark: listed apart in the source
[3] = biological target: T1, His6-α2 (E. coli class Ia ribonucleotide reductase α subunit, NrdA) (E. coli, UniProt P00452 1-761); test: stopped-flow fluorescence spectroscopy
T1 sequence (looked up): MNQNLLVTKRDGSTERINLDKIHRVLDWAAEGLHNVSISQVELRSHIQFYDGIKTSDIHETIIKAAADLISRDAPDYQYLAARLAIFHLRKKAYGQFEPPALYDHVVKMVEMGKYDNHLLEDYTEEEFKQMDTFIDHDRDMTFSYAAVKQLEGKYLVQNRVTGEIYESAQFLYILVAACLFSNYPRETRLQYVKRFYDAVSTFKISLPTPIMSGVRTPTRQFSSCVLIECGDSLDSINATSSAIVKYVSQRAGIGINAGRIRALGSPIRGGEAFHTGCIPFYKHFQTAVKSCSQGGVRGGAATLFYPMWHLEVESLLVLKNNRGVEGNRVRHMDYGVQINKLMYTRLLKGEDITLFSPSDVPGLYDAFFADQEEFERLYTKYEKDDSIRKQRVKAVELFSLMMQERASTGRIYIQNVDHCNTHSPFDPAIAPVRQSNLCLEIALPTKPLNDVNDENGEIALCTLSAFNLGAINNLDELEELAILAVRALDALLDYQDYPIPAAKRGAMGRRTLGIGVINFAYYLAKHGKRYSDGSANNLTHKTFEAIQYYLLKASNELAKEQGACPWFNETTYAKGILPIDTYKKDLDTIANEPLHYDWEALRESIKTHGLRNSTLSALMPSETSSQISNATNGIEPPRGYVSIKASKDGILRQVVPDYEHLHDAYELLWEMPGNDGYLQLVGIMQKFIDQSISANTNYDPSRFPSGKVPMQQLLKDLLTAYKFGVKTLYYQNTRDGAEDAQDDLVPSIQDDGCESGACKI

[4] = biological target: dansyl-β2 (C268S/C305S/V365C-β2 labeled with BADAN) (E. coli); test: stopped-flow fluorescence spectroscopy
[5] = biological target: dansyl-β2 (C268S/C305S/V365C-β2 labeled with BADAN) (E. coli); test: stopped-flow fluorescence spectroscopy; remark: listed apart in the source
[6] = biological target: dansyl-β2 (C268S/C305S/V365C-β2 labeled with BADAN) (E. coli); test: stopped-flow fluorescence spectroscopy; remark: listed apart in the source
[7] = biological target: dansyl-β2 (C268S/C305S/V365C-β2 labeled with BADAN) (E. coli); test: stopped-flow fluorescence spectroscopy; remark: listed apart in the source

Molecule: RNR α2 (from UniProt P00452)
Kd [1]: 200 nM
Kd [2]: 400 nM

binding result [3]: binds
B1: met-β2 (wt-β2 with the tyrosyl radical reduced by hydroxyurea) (enzyme, E. coli, UniProt P69924 1-376, looked up)
chain: MAYTTFSQTKNDQLKEPMFFGQPVNVARYDQQKYDIFEKLIEKQLSFFWRPEEVDVSRDRIDYQALPEHEKHIFISNLKYQTLLDSIQGRSPNVALLPLISIPELETWVETWAFSETIHSRSYTHIIRNIVNDPSVVFDDIVTNEQIQKRAEGISSYYDELIEMTSYWHLLGEGTHTVNGKTVTVSLRELKKKLYLCLMSVNALEAIRFYVSFACSFAFAERELMEGNAKIIRLIARDEALHLTGTQHMLNLLRSGADDPEMAEIAEECKQECYDLFVQAAQQEKDWADYLFRDGSMIGLNKDILCQYVEYITNIRMQAVGLDLPFQTRSNPIPWINTWLVSDNVQVAPQEVEVSSYLVGQIDSEVDTDDLSNFQL
modifications: diferric center, Y122• reduced by hydroxyurea

k dissoc, faster phase of the biexponential decay (α4β4 state, with dATP) [4]: 7 s⁻¹
k dissoc, slower phase of the biexponential decay (α4β4 state, with dATP) [4]: 0.46 s⁻¹
koff [4]: 109 s⁻¹
kon [4]: 1.63e+08 M⁻¹ s⁻¹
kon [5]: 1.79e+08 M⁻¹ s⁻¹
kon [6]: 1.56e+08 M⁻¹ s⁻¹
kon [7]: 1.93e+08 M⁻¹ s⁻¹
B2: His6-α2 (E. coli class Ia ribonucleotide reductase α subunit, NrdA) (enzyme)
chain: MNQNLLVTKRDGSTERINLDKIHRVLDWAAEGLHNVSISQVELRSHIQFYDGIKTSDIHETIIKAAADLISRDAPDYQYLAARLAIFHLRKKAYGQFEPPALYDHVVKMVEMGKYDNHLLEDYTEEEFKQMDTFIDHDRDMTFSYAAVKQLEGKYLVQNRVTGEIYESAQFLYILVAACLFSNYPRETRLQYVKRFYDAVSTFKISLPTPIMSGVRTPTRQFSSCVLIECGDSLDSINATSSAIVKYVSQRAGIGINAGRIRALGSPIRGGEAFHTGCIPFYKHFQTAVKSCSQGGVRGGAATLFYPMWHLEVESLLVLKNNRGVEGNRVRHMDYGVQINKLMYTRLLKGEDITLFSPSDVPGLYDAFFADQEEFERLYTKYEKDDSIRKQRVKAVELFSLMMQERASTGRIYIQNVDHCNTHSPFDPAIAPVRQSNLCLEIALPTKPLNDVNDENGEIALCTLSAFNLGAINNLDELEELAILAVRALDALLDYQDYPIPAAKRGAMGRRTLGIGVINFAYYLAKHGKRYSDGSANNLTHKTFEAIQYYLLKASNELAKEQGACPWFNETTYAKGILPIDTYKKDLDTIANEPLHYDWEALRESIKTHGLRNSTLSALMPSETSSQISNATNGIEPPRGYVSIKASKDGILRQVVPDYEHLHDAYELLWEMPGNDGYLQLVGIMQKFIDQSISANTNYDPSRFPSGKVPMQQLLKDLLTAYKFGVKTLYYQNTRDGAEDAQDDLVPSIQDDGCESGACKI
